Experimental data as given in publication PMC4108183.

Legend:
purified protein [1] = substrate: CC(C)(COP(=O)(O)OP(=O)(O)OC[C@H]1O[C@@H](n2cnc3c(N)ncnc32)[C@H](O)[C@@H]1OP(=O)(O)O)[C@@H](O)C(=O)NCCC(=O)NCCS; assay: purified protein; details: alternate sulfane sulfur acceptor; pH 9.0; 37.0 °C
purified protein [2] = substrate: O=S(O)(O)=S; assay: purified protein; details: pH 9.0, 37.0 °C

| Protein | Km (purified protein [1]) [µM] | Km (purified protein [2]; sulfane sulfur transferred to active site cysteine (Cys98)) [µM] | Km (purified protein [2]; sulfane sulfur transferred to active site cysteine (Cys79)) [µM] |
| --- | --- | --- | --- |
| yeast RDL1 (Saccharomyces cerevisiae S288C) (protein) MWKAVMNAWNGTESQSKNVSNIQSYSFEDMKRIVGKHDPNVVLVDVREPSEYSIVHIPASINVPYRSHPDAFALDPLEFEKQIGIPKPDSAKELIFYCASGKRGGEAQKVASSHGYSNTSLYPGSMNDWVSHGGDKLDL | 150 ± 50 | 2000 ± 500 |  |
| human TSTD1 (Homo sapiens) (protein) MAGAPTVSLPELRSLLASGRARLFDVRSREEAAAGTIPGALNIPVSELESALQMEPAAFQALYSAEKPKLEDEHLVFFCQMGKRGLQATQLARSLGYTGARNYAGAYREWLEKES | 90 ± 10 |  | 14000 ± 2000 |
